# B1: Bap1-GFP (natural protein)
# chain: MNKGWLELESDPGLFTLLVEDFGVKGVQVEEIYDLQSKCQGPVYGFIFLFKWIEERRSRRKVSTLVDDTSVIDDDIVNNMFFAHQLIPNSCATHALLSVLLNCSNVDLGPTLSRMKDFTKGFSPESKGYAIGNAPELAKAHNSHARPEPRHLPEKQNGLSAVRTMEAFHFVSYVPITGRLFELDGLKVYPIDHGPWGEDEEWTDKARRVIMERIGLATAGEPYHDIRFNLMAVVPDRRIKYETRLHVLKVNRQTVLEALQQLIRVTQPELIQTHKSQESQLPEESKPASSKSPLGLEAGRTPVASECTQTDGAEEVAGSCPQTTTHSPPSKCKLVVKPPGSSLNGVPPNPAPIVQRLPAFLDNHNYAKSPMQEEEDLAAGVGRSRVPVRAPQQYSEDEDDYEDEDEDVQNTNPAIRYKRKGTGKPGSLSNSSDGQLSVLQPNTINVLTEKLQESQKDLSVPLSIKTSSGAGSPAVAVPTHSQPSPTPSNESTDTASEIGSAFNSPLRSPIRSANPTRPSSPVTSHISKVLFGEDDSLLRVDCIRYNRAVRDLGPVISTGLLHLAEDGVLSPLALTEGGKGSSPSTRSSQGSQGSSGLEEKEVVEVTESRDKPGLNRSSEPLSGEKYSPKELLALLKCVEAEIANYEACLKEEVEKRKKFKIDDQRRTHNYDEFICTFISMLAQEGMLANLVEQNISVRRRQGVSIGRLHKQRKPDRRKRSRPYKAKRQ
# Target: the molecule itself
# Assay: affinity purification with mass spectrometry
protein,measurement,value
B1,stoichiometry N,~2

# Source: PMC4939079 (Nature structural & molecular biology, 2016)
